B1: RcGH3-6: GH3 protein, accession XP_002533739 (protein, listed as Ricinus communis)
chain: MPEAPKNSLISSDYNLSEKNRKTLQFIEDVTSNPDEVQKKVLEEILTRNARVEYLQKHGLNGYTDRESFKKIMPVIAYEDIQPHINRIANGDTSPILCSKPISEFLTSSGTSGGERKLMPTIEEELGRRSLLYSLLMPVMNQFVPGLEKGKGMYFLFIKSEAKTPGGLVARPVLTSYYKSSHFKDRPFDPYTNYTSPNETILCPDSYQSMYSQMLCGLCQRNDVLRVGAVFASGFIRAIRFLEKHWQLLCNDIRTGTVNPQITDLSVREAVMKILKPDPKLADFIAAECSQESWQGIITRLWPNTKYVDVIVTGTMSQYIPTLDYYSNGLPLVCTMYASSECYFGVNLNPLCKPSEVSYTLIPTMAYFEFLPVHRNNGVTNSISMPKSLNEKEQQELVDLVDVKLGQEYELVVTTYAGLYRYRVGDVLRVAGFKNKAPQFNFICRKNVVLSIDSDKTDEVELQNAVKNAVNHLVPFDATLAEYTSYADTTSIPGHYVLFWEITLNGSTPIPPSIFEDCCLTIEESLNSVYRQGRVSDKSIGPLEIKIVEPGTFDKLMDYAISLGASINQYKTPRCVKFAPIVELLNSRVVSSYFSPKCPKWVPGHKQWGNKN
B2: PtGH3-3: GH3 protein, accession EEE85053 (protein, listed as Populus trichocarpa)
chain: MAVDNALSSPLGPPACEKDAKALQFIEEMTRKTDSVQEDVLAKILIQNAEVEYLKRFNLDGATDRETFKSKLPTIRYEDLQPEIQRIANGDRSSILSTHPISEFLTSSGTSAGERKLMPTIKQELDRRQLLYSLLMPVMNLYVPGLDKGKGLYFLFVKSETRTPGGLLARPVLTSYYKSDHFKTRPYDPYNVYTSPNEAILCADSFQSMYTQMLCGLLEREQVLRVGAVFASGLLRAIRFLQLHWRELADDIESGMLNKEITDPSVKDCMVKILKPNPKLAEFVRMECSKENWEGIITRIWPNTKYLDVIVTGAMAQYIPTLDYYSGGLPLACTMYASSECYFGLNLNPMCKPSEVCYTIMPNMAYFEFLPHDPNGFTHDSTPKLVDLADVELGKEYELVITTYAGLYRYQVGDILRVTGFHNSAPQFHFVRRKNVLLSIDSDKTDEAELQKAVENASQLLREFNTSVVEYTSYADTKTIPGHYVIYWELLVKDLANSPSDEVLNQCCLAMEECLNSVYRQGRVADYSIGPLEIRVVKNGTFEELMDYAISRGASINQYKVPRCVNFTPIMELLDSRVVSKHFSPALPYWTPERRR
B3: RcGH3-3: GH3 protein, accession XP_002524947 (protein, listed as Ricinus communis)
chain: MAVDSGLSSPLGPPACEKDAKALQFIEEMTRNIDSVQEKVLAEILSRNAETEYLERFQLNGATDRDAFKSKVPVVTYEDLQPEIQRIANGDRSNIFSSHPISEFLTSSGTSAGERKLMPTIHEELDRRTLLYSLLMPVMNLYVPGLDKGKGLYFLFVKAETKTPGGLVARPVLTSYYKSEHFKNRPFDPYNVYTSPNETILCPDSFQSMYSQMLCGLIMREEVLRVGAVFASGLLRAIRFLQINCKHLAEDISTGTLNPKISDPSIRECMAKILKPNPELAEFITKECSEENWEGIITRIWPNTKYLDVIVTGAMAQYIPTLEYYSNGLPMACTMYASSECYFGVNLNPMVKPSDVSYTIMPNMAYFEFLPHESSSSALSRDSPPRLVDLADVEVGKEYELVITTYAGLNRYRVGDILRVTGFHNAAPQFRFIRRKNVLLSIDSDKTDESELQKAIENASLLLREFNTSVVEYTSYGDTKTIPGHYVIYWELLIKDPSNSPTEQVLNQCCLAMEESLNSVYRQGRVADSSIGPLEIRVVKNGTFEELMDYAISRGASINQYKVPRCVSFTPIMELLDSRVVSKHFSPSLPQWTPERRR
B4: PtGH3-6: GH3 protein, accession EEE95183 (protein, listed as Populus trichocarpa)
chain: MPEAPKNTLKTSDYNLAEKNKISLQFIEDVTSNADEVQKKVLEEILSRNAHVEYLQRHGLNGQTNRETFKKAVPVITYEDIQPDINRIANGDTSQILCSKPISEFLTSSGTSGGERKLMPTIEEELGRRSLLYSLLMPVMTQFVPGLEKGKGMYFLFIKSEAKTPGGLVARPVLTSYYKSTHFKDRPYDPYTNYTSPNETILCPDSYQSMYSQMLCGLCQHKEVLRVGAVFASGFIRAIRFLEKHWKLLANDIRTGIIDPQITDPSVREAVMKILKSDPKLADFIEAECSKESWQGIITRLWPNTKYVDVIVTGTMSQYIPTLDYYSNGLPLVCTMYASSECYFGVNLNPICKPSEVSYTLIPTMAYFEFLPVHRNNGVINSVSMPKSLNEKEQQELVDLVDVKLDQEYELVVTTYAGLYRYRVGDVLRVVGFKNKAPRFSFICRKNVVLSIDSDKTDEVELQSAVKNAVNHLIPFDATLAEYTSYADTTTIPGHYVLFWELSLNGSTPIPPSVFEDCCLTIEESLNSVYRQGRASDKSIGPLEIKIVEPGTFDKLMDYAISLGASINQYKTPRCVKFAPIVELLNSRVVTCYFSPKCPKWAPGHKQWSKN
B5: PtGH3-5: GH3 protein, accession EEE97566 (protein, listed as Populus trichocarpa)
chain: MPEAPKNTLKPSDYNLAEKNKKSLQFIEDVTSNADEAQKKVLEEILSRNAHVEYLQRHGLNGQTNRETFKKVMPVINYEDIQPDINRIANGDASPILCSKPISEFLTSSGTSGGERKLMPTIVEELGRRSLLYSLLMPVMSQFVPDLEKGKGMYFLFIKSEAKTPGGLVARPVLTSYYKSTHFKDRPYDPYTNYTSPNETILCPDSYQSMYSQMLCGLCQHKEVLRVGAVFASGFIRAIRFLEKYWKFLANDIRTGIIDPQITDPSIREAVMKILKPDAKLADFIEAECSKESWQGIITRLWPNTKYVDVIVTGTMSQYIPTLDYYSNGLPLVCTMYASSECYFGVNLNPICKPSEVSYTLIPTMAYFEFLPVNRNNGGINSVSRPKSLKEKEQQELVDLVDVKLDQEYELVVTTYAGLYRYRVGDVLRVVGFKNKAPQFSFICRKNVVLSIDSDKTDEVELQSAVKNAVNHLIPFDATLAEYTSYADTTTIPGHYVLFWELSLSGSTPIPPSVFEDCCLTIEESLNSVYRQGRVSDKSIGPLEIKIVEPGTFDKLMDYAISLGASINQYKTPRCVKFAPIVELLNSRAVSRYFSPKCPKWVPGHKQWNKN
B6: PtGH3-8: GH3 protein, accession EEE78719 (protein, listed as Populus trichocarpa)
chain: MLPIFDPNDNEAGLKLLEDLTNNACQIQRQVLEYILTTNLHTGYLKSFLNGDSSKENFKNKVPIVNYEDIKPCIERIANGEPSSIISAQPITELLTSSGTSGGQPKMMPSTAEELERKTFFYNLLMPIMNKYVDGLDQGKGMYLLFTKPEISTPSGLMARPVLTSYYKSSNFRNRAFNRYNVYTSPDETILCPDSKQSMYCQLLCGLVQREEVLRVGAVFASAFLRAIKFLEEYQKELCSNIRTGRLSDWITDPNCRNAVSSFLSKPNSELADLIEVECSGKSCEGIIKKLWPRTKYIEVIVTGSMAQYIPTLEFYSGGLPLVSTMYGSSECYLGINFKPLSNPSDVSYTLIPNMAYFEFLPVDKDNKKVIQAEKDVEAVDLEDVKLGHYYELVVTTFTGLYRYRVGDILMVTGFYNNAPQFRFVHRRNVVLSIDTDKTNEEDLLKAVTQAKVLLEPLGFLLTEYTSFADTSSIPGHYVLFWELKTQGTNDLPELDPITMEKCCSTVEESLDSIYRRCRKKDKSIGPLEIRVVTHGTFDALMDFCVSQGSSVNQYKTTRCIKSEEAFKILHSRVVGRFFSKKTPFWE
B7: PtGH3-4: GH3 protein, accession EEE95321 (protein, listed as Populus trichocarpa)
chain: MPEEAPMKNLVCEKSRKALQFIEDVTRNADEVQRKVLAEILSRNANVEYLQRYGLNGNKADREAFKKVMPVVSYEDLKPDIDRIANGDTSQIICSQPISEFLTSSGTSAGERKLMPTIEEELGRRSLLYSLLMPVMNQFVPGLDRGKGMYFLFIKSETKTPGGLLARPVLTSYYKSSYFRDRPYDPYTNYTSPNETILCQDSYQSMYSQLLCGLYQNYDVLRVGAVFASGFIRAIKFLEKHWILLCNDIRNGTIDPKISDPSVREAVLKILKPNQKLADFIEAECTRESWKGIITRLWPNTKYIDVIVTGTMSQYIPTLDYYCDGLPLVCTMYASSECYFGLNLNPLSKPSEVSYTLIPTMAYFEFLPVNRKNGLINSITAPTSLDQKKDQELVDLVDVKLGEEYELVVTTYAGLYRYRVGDILRVAGFKNKAPQFNFVCRKNVVLSIDSDKTDEVELQNAVQNAANHLLPFGASLTEYTSYADTSKIPGHYVLFWEICLSGTTPIPPSVFEDCCLAIEESLNSVYRQGRVSDKSIGPLEIRITERGAFDKLMDFALSQGASINQYKAPRCVKYAPIIELLNSRVVSNYISPKCPKWVPGHKQWCTPN

Assay: LC-MS assay of GH3 conjugation of IAA with Asp or Glu
Format: biochemical
Details: conjugation of IAA with Asp by recombinant GH3 protein; IAA-Asp product by LC-MS
Method in brief: (§1)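 Rxn: 20 mM Tris-HCl pH 8.0, 5 mM MgCl2, 1 mM DTT, 5 mM ATP, 5 mM auxin, 5 mM Asp/Glu, 44–164 μg/mL purified His-GH3; 30° C., 3 h. MeOH quench, supernatant diluted 20×, LC-MS vs conjugate standards.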

Point of comparison: B3, “kcat (hrs−1) IAA-Asp” value 887.172 h⁻¹. Against it:
- B1 — higher, 1037.037 h⁻¹
- B2 — lower, 806.314 h⁻¹
- B4 — higher, 888.111 h⁻¹
- B5 — higher, 941.117 h⁻¹
- B6 — lower, 13.999 h⁻¹
- B7 — lower, 660.985 h⁻¹

Same assay, conditions: conjugation of IAA with Glu by recombinant GH3 protein; IAA-Glu product by LC-MS

Point of comparison: B6, “kcat (hrs−1) IAA-Glu” value 568.780 h⁻¹. Against it:
- B1 — lower, 183.972 h⁻¹
- B2 — lower, 44.225 h⁻¹
- B3 — lower, 36.015 h⁻¹
- B4 — lower, 181.954 h⁻¹
- B5 — lower, 160.490 h⁻¹
- B7 — lower, 93.781 h⁻¹

Assay: LC-MS assay of GH3 conjugation of 2,4-D with Asp or Glu
Format: biochemical
Details: conjugation of 2,4-D with Asp by recombinant GH3 protein; 2,4-D-Asp product by LC-MS; 5 mM 2,4-D substrate
Method in brief: as §1

Point of comparison: B5, “kcat (hrs−1) 2,4-D-Asp” value 3.142 h⁻¹. Against it:
- B1 — higher, 4.189 h⁻¹
- B2 — lower, 2.033 h⁻¹
- B3 — higher, 3.813 h⁻¹
- B4 — higher, 5.415 h⁻¹
- B6 — lower, 0.000 h⁻¹
- B7 — lower, 0.740 h⁻¹

Same assay, conditions: conjugation of 2,4-D with Glu by recombinant GH3 protein; 2,4-D-Glu product by LC-MS; 5 mM 2,4-D substrate

Point of comparison: B3, “kcat (hrs−1) 2,4-D-Glu” value 1.854 h⁻¹. Against it:
- B1 — higher, 2.525 h⁻¹
- B2 — lower, 0.845 h⁻¹
- B4 — higher, 2.816 h⁻¹
- B5 — lower, 1.214 h⁻¹
- B6 — lower, 0.559 h⁻¹
- B7 — lower, 0.536 h⁻¹

Source: patent US20150351390A1, “COMPOSITIONS AND METHODS FOR AUXIN-ANALOG CONJUGATION” (PIONEER HI-BRED INTERNATIONAL, INC., priority 2012, published 2015)
